In IntAct's records for PubMed 25064736:

B1: Nibrin (Homo sapiens), O60934 (parent)
chain: MWKLLPAAGPAGGEPYRLLTGVEYVVGRKNCAILIENDQSISRNHAVLTANFSVTNLSQTDEIPVLTLKDNSKYGTFVNEEKMQNGFSRTLKSGDGITFGVFGSKFRIEYEPLVACSSCLDVSGKTALNQAILQLGGFTVNNWTEECTHLVMVSVKVTIKTICALICGRPIVKPEYFTEFLKAVESKKQPPQIESFYPPLDEPSIGSKNVDLSGRQERKQIFKGKTFIFLNAKQHKKLSSAVVFGGGEARLITEENEEEHNFFLAPGTCVVDTGITNSQTLIPDCQKKWIQSIMDMLQRQGLRPIPEAEIGLAVIFMTTKNYCDPQGHPSTGLKTTTPGPSLSQGVSVDEKLMPSAPVNTTTYVADTESEQADTWDLSERPKEIKVSKMEQKFRMLSQDAPTVKESCKTSSNNNSMVSNTLAKMRIPNYQLSPTKLPSINKSKDRASQQQQTNSIRNYFQPSTKKRERDEENQEMSSCKSARIETSCSLLEQTQPATPSLWKNKEQHLSENEPVDTNSDNNLFTDTDLKSIVKNSASKSHAAEKLRSNKKREMDDVAIEDEVLEQLFKDTKPELEIDVKVQKQEEDVNVRKRPRMDIETNDTFSDEAVPESSKISQENEIGKKRELKEDSLWSAKEISNNDKLQDDSEMLPKKLLLTEFRSLVIKNSTSRNPSGINDDYGQLKNFKKFKKVTYPGAGKLPHIIGGSDLIAHHARKNTELEEWLRQEMEVQNQHAKEESLADDLFRYNPYLKRRR
partner: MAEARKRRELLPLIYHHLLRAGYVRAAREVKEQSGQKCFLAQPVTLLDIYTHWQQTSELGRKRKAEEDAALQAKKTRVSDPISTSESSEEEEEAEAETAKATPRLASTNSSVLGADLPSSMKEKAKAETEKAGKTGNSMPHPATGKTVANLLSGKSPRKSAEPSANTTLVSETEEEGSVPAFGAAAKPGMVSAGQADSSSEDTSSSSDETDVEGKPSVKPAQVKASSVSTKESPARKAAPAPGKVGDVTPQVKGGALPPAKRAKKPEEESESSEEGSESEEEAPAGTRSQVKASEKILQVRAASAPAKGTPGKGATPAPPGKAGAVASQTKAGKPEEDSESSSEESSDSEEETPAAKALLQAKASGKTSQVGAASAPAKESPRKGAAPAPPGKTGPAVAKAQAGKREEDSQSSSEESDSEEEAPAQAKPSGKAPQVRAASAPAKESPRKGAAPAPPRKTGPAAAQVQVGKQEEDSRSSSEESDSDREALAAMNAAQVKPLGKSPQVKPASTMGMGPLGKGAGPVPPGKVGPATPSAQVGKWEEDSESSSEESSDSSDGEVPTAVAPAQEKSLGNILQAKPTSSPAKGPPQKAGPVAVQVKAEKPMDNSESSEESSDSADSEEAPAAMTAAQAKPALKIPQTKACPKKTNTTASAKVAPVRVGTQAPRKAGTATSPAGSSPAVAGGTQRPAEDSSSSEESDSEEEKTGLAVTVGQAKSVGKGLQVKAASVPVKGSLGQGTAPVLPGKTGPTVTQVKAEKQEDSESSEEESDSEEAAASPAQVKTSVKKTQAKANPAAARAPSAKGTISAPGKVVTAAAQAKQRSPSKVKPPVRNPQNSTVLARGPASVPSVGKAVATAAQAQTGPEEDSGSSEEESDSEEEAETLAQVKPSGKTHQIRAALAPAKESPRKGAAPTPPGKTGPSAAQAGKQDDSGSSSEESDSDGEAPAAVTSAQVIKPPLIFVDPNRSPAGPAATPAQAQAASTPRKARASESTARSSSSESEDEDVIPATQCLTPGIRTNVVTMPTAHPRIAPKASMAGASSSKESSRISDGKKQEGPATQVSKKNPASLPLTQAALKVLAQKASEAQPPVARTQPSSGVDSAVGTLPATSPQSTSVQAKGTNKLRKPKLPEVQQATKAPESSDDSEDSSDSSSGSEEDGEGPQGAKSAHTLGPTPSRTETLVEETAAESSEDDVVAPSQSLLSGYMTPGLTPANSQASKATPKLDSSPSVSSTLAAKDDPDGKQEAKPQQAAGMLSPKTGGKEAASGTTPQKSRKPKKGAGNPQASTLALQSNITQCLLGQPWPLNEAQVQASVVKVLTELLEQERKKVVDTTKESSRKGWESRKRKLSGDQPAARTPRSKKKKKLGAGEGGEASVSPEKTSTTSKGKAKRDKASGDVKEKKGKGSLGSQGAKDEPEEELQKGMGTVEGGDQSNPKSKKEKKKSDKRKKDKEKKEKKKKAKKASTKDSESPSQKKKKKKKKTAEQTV
B2: Treacle protein (Homo sapiens), Q13428 (parent)
chain: B1 partner

Variants of: B1
Conditions: with tcof_human TCOF1, Q13428

Row | effect of a mutation on the interaction | Variant
1 | disrupting interaction strength | R28A

Variants of: B1
Conditions: with tcof_human TCOF1, Q13428
Remark: another data set of the same source

Row | effect of a mutation on the interaction | Variant
2 | disrupting interaction strength | R28A;K160M

Variants of: B2
Conditions: with nbn_human NBN

Row | effect of a mutation on the interaction | Variant
3 | disrupting interaction strength | T210A
